Target: T1, DHX36 (UniProt Q9H2U1 1-1008)
T1 sequence: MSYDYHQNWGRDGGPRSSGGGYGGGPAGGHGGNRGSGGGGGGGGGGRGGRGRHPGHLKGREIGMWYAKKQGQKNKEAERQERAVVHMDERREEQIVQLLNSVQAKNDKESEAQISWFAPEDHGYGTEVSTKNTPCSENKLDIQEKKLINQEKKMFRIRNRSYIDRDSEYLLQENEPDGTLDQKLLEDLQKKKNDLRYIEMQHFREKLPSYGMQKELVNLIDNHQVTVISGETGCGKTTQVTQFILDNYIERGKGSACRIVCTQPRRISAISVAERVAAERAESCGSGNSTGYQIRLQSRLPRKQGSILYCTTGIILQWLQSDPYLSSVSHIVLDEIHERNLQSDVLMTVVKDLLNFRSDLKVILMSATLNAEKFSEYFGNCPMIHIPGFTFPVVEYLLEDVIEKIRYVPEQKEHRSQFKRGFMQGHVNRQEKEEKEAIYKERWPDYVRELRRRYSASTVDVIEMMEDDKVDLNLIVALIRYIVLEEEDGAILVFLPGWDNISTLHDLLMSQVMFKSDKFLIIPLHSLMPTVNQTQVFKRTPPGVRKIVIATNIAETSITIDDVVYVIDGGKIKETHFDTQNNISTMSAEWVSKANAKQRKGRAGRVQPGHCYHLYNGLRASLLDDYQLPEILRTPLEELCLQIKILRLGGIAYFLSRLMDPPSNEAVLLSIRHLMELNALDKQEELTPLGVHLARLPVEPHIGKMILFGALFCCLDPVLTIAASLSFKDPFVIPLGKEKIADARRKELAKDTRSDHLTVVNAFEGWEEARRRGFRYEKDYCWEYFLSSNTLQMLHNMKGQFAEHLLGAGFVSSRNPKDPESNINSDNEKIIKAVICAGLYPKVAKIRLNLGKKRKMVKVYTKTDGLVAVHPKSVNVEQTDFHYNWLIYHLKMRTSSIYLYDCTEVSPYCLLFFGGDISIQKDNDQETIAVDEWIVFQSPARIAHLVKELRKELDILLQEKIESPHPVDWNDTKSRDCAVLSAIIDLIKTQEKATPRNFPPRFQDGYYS
Test: EMSA; EMSA: 150 mM KCl, 1 mM MgCl2, 25 mM Tris-HCl pH 7.5, 8% sucrose, 30 min at 37 C; gel at 4 C. Pull-down: same buffer without sucrose, 4 C
Conditions: protein: commercial; label: 5' HEX; intramolecular rG4 with 3' single-stranded flank

For GGGGCGGGUGGGGAGGGGUGCUCUGCUGGUCUUCAAUU (structured_RNA) [HEX_APP rG4 wt region], the Kd was 51.3 ± 10.1 nM.
